Laboratory results published in the nanobody polyreactivity screen of Harvey et al. (2022).

Experiment: yeast display, Sf9 membrane polyspecificity reagent, FACS + sequencing; frameworks hold sequencing errors
Summary of the method: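 Synthetic nanobody libraries on Saccharomyces cerevisiae BJ5465 were galactose-induced for 36–48 hours, stained 1 hour at 4 °C with 10% biotinylated, detergent-solubilized Sf9 membrane reagent and enriched on streptavidin microbeads. FACS then separated cells into low and high (top ~1%) gates by anti-HA (expression) and streptavidin (reagent binding) fluorescence. Genes were colony-PCR amplified, MiSeq 2 × 250 sequenced and CDR-length filtered. A clone's polyreactivity label is that of its gate of origin.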

Row | Sequence | polyreactivity (PSR sort gate)
1 | QVQLVESGGGLVQAGGSLRLSCAASGRIFRIYAMGWYRQAPGKERELVASISDRGTRTYYADSVKGRFTISRDNAKNTVYLQMNSLKPEDTAVYYCAASTYTKFHTYYKSQASDYWGQGTQVTVSS | high polyreactivity
2 | QVQLVESGGGLVQAGGSLRLSCAASGRIFRKYAMGWYRQAPGKERELVAAINWSGGSTYYADSVKGRFTISRDNAKNTVYLQMNSLKPEDTAVYYCAARSPKAERDYWGQGTQVTVSS | high polyreactivity
3 | QVQLVESGGGLVQAGGSLRLSCAASGRIFRKYAMGWYRQAPGKERELVAAISGSGGSTTYADSVKGRFTISRDNAKNTVYLQMNSLKPEDTAVYYCAARGYSLYGYPYYYWGQGTQVSVSS | high polyreactivity
4 | QVQLVESGGGLVQAGGSLRLSCAASGRIFRKYAMGWYRQAPGKERELVAGITWRGTSTYYADSVKGRFTISRDNAKNTVYLQMNSLKPEDTAVYYCAAEWKGYYVHDYWGQGTQVTVSS | high polyreactivity
5 | QVQLVESGGGLVQAGGSLRLSCAASGRIFRKYTMGWYRQAPGKERELVAAITWSGGSTYYADSVKGRFTISRDNAKNTVYLQMNSLKPEDTAVYYCAARSIGGYRAVDTYYYWGHGTQVTVSS | high polyreactivity
6 | QVQLVESGGGLVQAGGSLRLSCAASGRIFRKYVMGWYRQAPGKERELVASITTSGDSTYYADSVKGRFTISRDNAKNTVYLQMNSLKPEDTAVYYCAARSYRGRRYDYWGQGTQVTVSS | high polyreactivity
7 | QVQLVESGGGLVQAGGSLRLSCAASGRIFRLYAMGWYRQAPGKEREFVATITWIGGRTYYADSVKGRFTISRDTAKNTVYLQMNSLKPEDTAVYYCAADPGYTYEYWGQGTQVTVSS | low polyreactivity
8 | QVQLVESGGGLVQAGGSLRLSCAASGRIFRLYVMGWYRQAPGKERELVATISSRGGSTYYADSVKGRFTISRDNAKNTVYLQMNSLKPEDTAVYYCAAVSRYRYGYDYWGQGTQVTVSS | high polyreactivity
9 | QVQLVESGGGLVQAGGSLRLSCAASGRIFRPYAMGWYRQAPGKERELVASMSWRGSSTYYADSVKGRFTISRDNAQNTVYLQMNSLKPEDTAVYYCAARRYPTSGYGYWGQGTQVTVSS | high polyreactivity
10 | QVQLVESGGGLVQAGGSLRLSCAASGRIFRPYTMVWSRQAPGKERELVAAINSSGGRTYYADSVKGRFTISRDNAKNTVYLEMNSLKPEDTAVYYCAVGWVFYRASNMNYWGQGTQVTVSS | high polyreactivity
11 | QVQLVESGGGLVQAGGSLRLSCAASGRIFRQKAMGWYRQAPGKERELVASISSGGNTYYADSVKGRFTISRDNAKNNVYLQMNSLKPEDTAVYYCAAAKQRYYRWWTTPGYDYWGQGTQVTVSS | low polyreactivity
12 | QVQLVESGGGLVQAGGSLRLSCAASGRIFRRNAMGWSRQAPGNERELVAAISSSGGRTYYADSVKGRFTISRDNAKNTVYLEMNSLKPEDTAVYYCAARIRTVAHVDYDYWGQGTQVTVSS | high polyreactivity
13 | QVQLVESGGGLVQAGGSLRLSCAASGRIFRRNAMGWYRQAPGKERDLVAAITYSGTRTYYADSVKGRFTISRDNAKITVYLQMNSLKPEDTAVYYCNAGVGYFVGTYYGFLPYDYWGQGTQVTVSS | high polyreactivity
14 | QVQLVESGGGLVQAGGSLRLSCAASGRIFRRNAMGWYRQAPGKEREFVATITSGGSTFYADSVKGRFTISRDNAKNTVYLQMNSLIPEDTAVYYCAAPYYNTPFHTPNYSWGQGTQVTVSS | low polyreactivity
15 | QVQLVESGGGLVQAGGSLRLSCAASGRIFRRNAMGWYRQAPGKERELVAAISTRGSSTYYADSVKGRFTISRDNAKNTVYLQMNSLKPEDTAVYYCAADAYFIYSRYWYDYWGQGTQVTVSS | high polyreactivity
16 | QVQLVESGGGLVQAGGSLRLSCAASGRIFRRNVMGWYRQAPGKERELVAAITGSGSSTYYADSVKGRFTISRDNAKNTVYLQMNSLKPVDTAVYYCATKWRFKLGDYWGQGTQVTVSS | high polyreactivity
17 | QVQLVESGGGLVQAGGSLRLSCAASGRIFRRYAMGWYRQAPGKERELVAAINGRGTTTYYADSVKGRFTISRDNAKNTVYLQMNSLKPEDTAVYYCAAENTIRYDREYDYWGQGNQVTVSS | high polyreactivity
18 | QVQLVESGGGLVQAGGSLRLSCAASGRIFRRYAMGWYRQAPGKERELVAAISSTGGNTYYADSVKGRFTISRDNAKNTVYLQMNSLKPEDTAVYYCATRAFYLRGNGYWGQGTQVTVSS | high polyreactivity
19 | QVQLVESGGGLVQAGGSLRLSCAASGRIFRSNAIGWYRQAPGKERELVSVITWCGGSTYYADSVKGRFTITRDTAKNTVYIQMNSLKPEDTAVYYCAKRRAAVNGRSYYYYWGQGTQVTVSS | high polyreactivity
20 | QVQLVESGGGLVQAGGSLRLSCAASGRIFRSNAMGWYRQAPGKERELVATITSSGGRTYYADSVKGRFTISRDNAKNTVYLQMNSLKPEDTAVYYCNAQQRTRGQKAQWVRDEYWGQGTQVTVSS | low polyreactivity
21 | QVQLVESGGGLVQAGGSLRLSCAASGRIFRSNTMGWYRQAPGKERELVAAITRRGGSTYYADSVKGRFTISRDNAKNTVYLQLNSLKPEDTAVYYCAAVKSYYSEYGYWGQGTQGTVSS | high polyreactivity
22 | QVQLVESGGGLVQAGGSLRLSCAASGRIFRSYAMGWSIQAPGKERELVAAITSGGSTNYADSVKGRFTISRDNAKNTVYLQMNSLKPEDTAVYYCAARWPWYGKLRYYYWGQGTQVTVSS | high polyreactivity

Row | Sequence | polyreactivity (PSR sort gate)
23 | QVQLVESGGGLVQAGGSLRLSCAASGRIFRSYAMGWYRQAPGKERELFAAISYSGGSTYYADSVKGRFTISRDNAKNTVYLQMNSLKPEDTAVYYCAALPGERKYIYYGYDYWGQGTQVTVSS | high polyreactivity
24 | QVQLVESGGGLVQAGGSLRLSCAASGRIFRSYAMGWYRQAPGKERELVAAISSGGSTNYADSVKGRFTISRDNAKNTVYLQMNSLKPEDTAVYYCAASYLYEWSRFVYDGLYYWGQGTQVTVSS | low polyreactivity
25 | QVQLVESGGGLVQAGGSLRLSCAASGRIFRSYAMGWYRQAPGKERELVASISWSGVSTSYADSVKGRFTISRDIAKNTVYLQMNSLKPEDTAVYFCAARSWYVGSGPFNYWGQGTQVTVSS | high polyreactivity
26 | QVQLVESGGGLVQAGGSLRLSCAASGRIFRTYAMGWYRQAPGKERELVAAINSGGTTYYADSVKGRFTISRDNAKNTVYLQMNSLKPEDTAVYYCNAEYYYAFLRLWYDYWGQGTQVTVSS | high polyreactivity
27 | QVQLVESGGGLVQAGGSLRLSCAASGRIFRTYTMGWYRQAPGKERELVAAITSGSSTYYADSVKGRFTISRDNAKNTVYLQMHSLKPEDTAVYYCATEWSIGRHLYTYNYWGPGTQVTVSS | high polyreactivity
28 | QVQLVESGGGLVQAGGSLRLSCAASGRIFRVNAMGWYRQAPGKERELVAAINFSGTSTYYADSVKGRFTISRDNAKNTVYLQMNSLKPEDTAVYYCNTASYVSWYVHYYYWGQGTQVTVSS | low polyreactivity
29 | QVQLVESGGGLVQAGGSLRLSCAASGRIFRVNAMGWYRQAPGKERELVAAISWIGGRTYYADSVKGRFTISRDNAKNTVYLQMNSQKPEDTAVYYCAAVGSSSTHWASRSYRYNYWGQGTQVTVSS | high polyreactivity
30 | QVQLVESGGGLVQAGGSLRLSCAASGRIFRVNGMGWDRQAPGKERELVAAIRRSGGSTYYADSVKGRFTISRDNAKNTVYLQMNSLKPEDTAVYYCAAPVRQSSYTRYDSWGQGTQVTVSS | high polyreactivity
31 | QVQLVESGGGLVQAGGSLRLSCAASGRIFRVYAMGWYRHAPGKERELVAAISGRGGSTTYADSVKGRFTISRDNAKNTVYLQMNSLKPEDTAVYYCNTAYLAKRSGRRRFNYWGHGTQVTVSS | low polyreactivity
32 | QVQLVESGGGLVQAGGSLRLSCAASGRIFRVYAMGWYRQAPGKERELVAAISWSGGRTYYADSVKGRFTISRDNAKNTVYLQMNSLKPEDTAVYYCAAVRYERGLWSDYWGQGTQVTVSS | high polyreactivity
33 | QVQLVESGGGLVQAGGSLRLSCAASGRIFRVYAMGWYRQAPGKERELVAAISYSGGSTYYADSVKGRFTISRDNAKNTVYLQMNSLKPEDTAVYYCAAIRRSSKESKGTNPYEYWGQGTQVTVSS | high polyreactivity
34 | QVQLVESGGGLVQAGGSLRLSCAASGRIFRVYTMGWYRPAPGKESELVAAISRGGSTNYADSVKGRFTISRDNAKNTVYLQMNSLKPEDTAVYYCAARYPNLRRRWYYYWGQGTQVTVSS | high polyreactivity
35 | QVQLVESGGGLVQAGGSLRLSCAASGRIFRWNVTGWYRQAPGKETELDASITSGSSTNYADSVKGRFTISRDNAKYTVFLQMNSLKPEDTAVYYSAAYGVQTYRRYSYPRGFDYWGQGTQVTVSS | high polyreactivity
36 | QVQLVESGGGLVQAGGSLRLSCAASGRIFRWYAMGWYRQAPGKERELVAAISKSGGTTNYADSVKGRFTISRDNAKNTVYLQMNSLKPEDTAVYYCAARRYPYGGYGYRYDYWGQGTQVTVSS | high polyreactivity
37 | QVQLVESGGGLVQAGGSLRLSCAASGRIFRWYAMGWYRQAPGKERELVATISSSGRTNYADSVKGRFTISRDNAKNTVYLQMNSLKPEDTAVYYCAAEYYLRYRYDYWGQGTQVTVSS | high polyreactivity
38 | QVQLVESGGGLVQAGGSLRLSCAASGRIFRYNAMGWYRQAPGKEREFVAAITQSGGSTYYADSVKGRFTISRDNAKNTVYLQMNRLKPEDTAVYYSAADRFYWTYLNYQFLTDYWGQGTQVNVSS | high polyreactivity
39 | QVQLVESGGGLVQAGGSLRLSCAASGRIFRYNAMGWYRQAPGKERELVAAISTSGTRTFYADSVKGRFTISRDNAKNTVYLQMNSLKPEDTAVYYCNKVAGPGKLGTYYYWGQGTQVTVSS | high polyreactivity
40 | QVQLVESGGGLVQAGGSLRLSCAASGRIFRYNAMGWYRQAPGKERELVAAISWGGGSTYYADSVKGRFTISRDNAKNTVYLQMNSLKPEDTAVYYCAVTSGSSFRMGYWGQGTQVTVSS | high polyreactivity
41 | QVQLVESGGGLVQAGGSLRLSCAASGRIFRYNAMGWYRQAPGKERELVAAITSGTGTNYADSVKGRFTISRDNAKNTVYLQMNSLKPEDTAVYYCAAQPGQAWWSTDHDDYWGQGTQVTVSS | low polyreactivity
42 | QVQLVESGGGLVQAGGSLRLSCAASGRIFRYNAMGWYRQAPGKERELVADISKRGGSTYYADSVKGRFTISRDNAKNTVYLQMNSLKPEDTAVYYCNARNTYYVVANDYWGQGTQVTVSS | high polyreactivity
43 | QVQLVESGGGLVQAGGSLRLSCAASGRIFRYNAMGWYRQAPGKERELVATIRWGGGGTYYADSVKGRFTISRDNAKNSVYLLMNSLKPEDTAVYYCNAKRYSPGYNYWGQGTQVTVSS | high polyreactivity
